Reference: US20260274991A1 (TRIVENI BIO, published 2026)

Key:
[1] = biological target: T1, human trypsin 1 with serine to alanine mutation (including a His tag at C terminus) (human, UniProt P07477 24-247); test: SPR (Biacore), antibody captured on Protein A chip, single-cycle kinetics, 25 C
T1 construct: also called Trypsin 1 S to A
Description: (§1) Antibody binding kinetic experiments via Biacore were performed to screen for anti-trypsin 1/trypsin 2 antibodies having high affinity to the respective targets. All screening assays were performed at 25 C. The running buffer used was 20 mM HEPES, 300 mM NaCl, 1 mM CaCl₂, 0.01% Tween-20, pH 7.5. Antibodies (1 ug/mL) were captured on Fc2-4 of a Series S ProteinA Sensor Chip (Cytiva) flowing at 10 uL/min for 30 s. Kinetics measurements were made in single-cycle kinetics mode with a series of 4-5 concentrations with top concentration of 10-200 nM and serial dilution 4-fold. Contact time was typically 180-300 s and dissociation time ranged from 300-3600 s. Flow rate of 30 uL/min was typically used. The sensor chip was regenerated with 10 mM glycine, pH 1.5 with a contact time of 30 s flowing at 50 uL/min.

[2] = biological target: T2, human trypsin 2 with serine to alanine mutation (including a His tag at C terminus) (human, UniProt P07478 25-247, limits assumed); test: as above
T2 construct: also called Trypsin 2 S to A
T2 sequence (P07478 other isoform, or with tags, fused parts or gaps limits assumed): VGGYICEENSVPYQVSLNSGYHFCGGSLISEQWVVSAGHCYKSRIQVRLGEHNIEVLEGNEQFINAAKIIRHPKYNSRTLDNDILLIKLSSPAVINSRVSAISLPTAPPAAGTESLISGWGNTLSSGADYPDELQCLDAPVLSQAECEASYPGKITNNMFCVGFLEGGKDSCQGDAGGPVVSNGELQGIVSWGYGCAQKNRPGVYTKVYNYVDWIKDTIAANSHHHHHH
Description: as §1

[3] = biological target: human PRSS1 (R&D Systems), activated with enterokinase (human, UniProt P07477 24-247); test: cell-based or functional assay
Native Trypsin (abcam) = test: cell-based or functional assay
[4] = biological target: PRSS2 (R&D Systems), activated with enterokinase (human, UniProt P07478 24-247); test: cell-based or functional assay
PRSS2 (R&D Systems), activated with enterokinase, sequence (P07478 24-247 limits assumed): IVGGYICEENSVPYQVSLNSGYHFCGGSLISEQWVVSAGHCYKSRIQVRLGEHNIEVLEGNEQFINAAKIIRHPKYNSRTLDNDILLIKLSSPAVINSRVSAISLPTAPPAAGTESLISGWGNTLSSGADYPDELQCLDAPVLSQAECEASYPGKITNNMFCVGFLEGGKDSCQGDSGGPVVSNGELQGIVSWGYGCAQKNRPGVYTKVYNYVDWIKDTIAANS

B1: Trypsin 1/Trypsin 2-Dual-L5-Ab2 (antibody, V domains shown)
VH: QVQLVQSGAEVKKPGASVKVSCKASGYTFEGHYMHWVRQAPGQGLEWMGAINPYSGQTNYAQKFQGRVTMTRDTSISTAYMELSRLRSDDTAVYYCARDFVLLLRQSRILHESAFDIWGQGTTVTVSS
VL: EIVMTQSPATLSVSPGERATLSCRASQSVGSNLAWYQQKPGQAPRLLIYGASTRATGIPARFSGSGSGTEFTLTISSLQSEDFAVYYCQQFHNWPPLTFGGGTKVEIK
- Kd [1]: < 0.01 nM
- Kd [2]: 0.00648 nM
- IC50 Against 1 nM hTryp-1 [3]: 5.87 nM
- IC50 Against 0.25 nM Native Trypsin (Native Trypsin (abcam)): 9.82 nM
- IC50 Against 1 nM hTryp-2 [4]: 6.09 nM
